B1: linear peptide 3 [modified: 5(6)-carboxyfluorescein on the N-terminus; 5(6)-carboxyfluorescein on the N-terminus] / B-RCAL (BÜHLMANN recombinant calprotectin; His6-linker-S100A9-linker-S100A8) [human] (parent)
chain 1: RSPESVAFPMFQSHWYSG
chain 2: MTCKMSQLERNIETIINTFHQYSVKLGHPDTLNQGEFKELVRKDLQNFLKKENKNEKVIEHIMEDLDTNADKQLSFEEFIMLMARLTWASHEKMHEGDEGPGHHHKPGLGEGTPLEVLFQGPMLTELEKALNSIIDVYHKYSLIKGNFHAVYRDDLKKLLETECPQYIRKKGADVWFKELDINTDGAVNFQEFLILVIKMGVAAHKKSHEESHKE

Our source for the Kd values is publication PMC10192418, “High-affinity peptides developed against calprotectin and their application as synthetic ligands in diagnostic assays” (Nature Communications, 2023).

Usually Kd stands for the free concentration of one partner at which half of the binding sites on the other are occupied at equilibrium, for simple one-to-one binding.

In the test the parent is B1. As to the kind of experiment: fluorescence polarisation. The settings on record: with B-RCAL (BÜHLMANN recombinant calprotectin; His6-linker-S100A9-linker-S100A8) [human]; one measurement.
chain 1 RSAESVAFPMFQSHWYSG [chain 1 P3A]: the Kd amounted to 28 nM.
The result for chain 1 ASPESVAFPMFQSHWYSG [chain 1 R1A] reads 32 nM; that for chain 1 RSPESVAFPMFASHWYSG [chain 1 Q12A], 27 nM.
Next, chain 1 RSPESAAFPMFQSHWYSG [chain 1 V6A]: 39 nM; chain 1 RSPESVGFPMFQSHWYSG [chain 1 A7G]: 29 nM.
